# Results taken from the DeepSol protein solubility set.
# Assay: soluble on expression in E. coli; label from the status in PepcDB or PDB records
row,Sequence,soluble on expression in E. coli
1,MDNPTTPIAVVGPTASGKSALGVSLAHHLNGEVVNVDSMQLYKGMDIGTAKLTLEEREGIVHHLLDVWDISETASVARYQSQAIAVVEDIQRRGKTPILVGGSMLYVQSLVDDWQFPPTDPSVRAKWESKLNEVGVEALHALLAQKDPQAASIIELKDPRRTVRALEVIELTGKPFNASQPPKNAPPRWNTQIIGLGTNTEWLNPRIDLRTELMFEKGFVHEVENLVGKGLIADSTAGHAIGYAQVLQHFAGELSVDEMIEHTKIGTRRYVRRQRSWFKRDPRIHWIDASGDTFSMALSLLS,not soluble
2,GPGSMIYSGEIENGQMHGRGCLQYPNKEKYDGDWVFGKRHGTGVYVYADGSRYEGEWVDDKVHGNGACYYTSGNVYTGEWSMGRINGRGVLEYHDGDRYEGEWKDGRMHGKGTYCYSNGDKYEGEWKEDKRHGKGVVVYAAPDGCVSEKYDGEWNEGRMQGWGKYFYADGGVYEGEWVDGRMHGRGTYVFPNGNKYEGEWVEDRKDGYGILLYTNGERYEGYWHLDKAHGKGTLTFLQGDRYVGEWHYGKKHGHGVLSYSNGDTYDGEWRDDDAWGYGVLQYANGCRYEGEWAEDRRHGKGLLVLPDGSSYEGSFAHGKKDGPGKIILKDGSMYIGTWKDGVIVGQGEFRLSENCDLSNPDY,soluble
3,MRASRKRLHTTNLRWNMSQKHWSKVQLLHEVVKNPNIIIKGKHSYYSDCWDAGFEASVVRYLHGDEISQRWDPLWEIDQLVIGDYVCIGAEVVILMGGNHTHRADWFCLYPFMDVIEQAYVGKGNTEIGDGAWLGMRAMIMPGVKIGEGAIVAANSVVTKDVAPYSIVAGSPAQLVKYRFDAKVIDELLALKVYDWPPEKFTALKSYLCALDLAALKQAVIQYDAEPHNPLS,not soluble
4,MPILTIREVCNINHWGIGYYDVDDSGEIIVRPNPSQHNQTVSLQKLTEAVQQKHQARLPVLFCFPQILEHRLRDINRAFQTAREECGYKGGYCLVYPIKVNQHRRVIESLMSSGQPHGLEAGSKAELMAVLAHAGNRQTLIVCNGYKDREYIRFALMGEKLGHQVYLVIEKLSEIQMVLEEAEKLGIKPRLGVRARLASQGSGKWQSSGGEKSKFGLSASQVLQLVDILKQKNRLDCLQLLHFHLGSQLGNIRDVATGVHESARFYVELHKLGVNIRCFDVGGGLGVDYEGNRTQSDCSVNYSLNEYAATVVWGISQACLEHGLPHPTIITESGRGITAHHAVLVANVIGVERYKPRRLDAPSPEAPRVLHSMWETWTDISASREKRSLRSWIHEGQFDLADVHNQYNVGLLSLAQRAWAEQLYLNICHEVGELFNEKHRSHRTIIDELQERFADKLYVNFSLFQSLPDAWGIDQLFPVCPITGLNEPIARRAVLLDITCDSDGTIDHYIDGDGIAGTMPMPDYPEEEPPLLGFFMVGAYQEILGNMHNLFGDTATADVVVGEDGQFTVIDYDEGNTVADMLEYVYQDPKELMKRYREQIEHSDLPASQAMSFLKELEAGLNGYTYLEDE,not soluble
5,RMALSVLASSKEELFMPLLSQEAAHPDEWAGRLKNLSVNAEHAVTASLKNAEKAAVILGAEVQNHPDYAAVYAAAQELADATGAVLGILPQAANSVGADVLNVNSGKSVVEMVNAPKQAVLLLNVEPEIDTADGAKAVAALKQAKSVMAFTPFVSETLLDVCDVLLPIAPFTETSGSFINMEGRLQSFHGVVQGFGDSRPLWKVLRVLGNLFDLKGFEYHDTAAILKDALDVESLPSKLDNRNAWTGEGVQTTSDRLVRVGGVGIYHTDSIVRRSAPLQETSHAAVPAARVNPNTLARLGLQDGQTAVAKQNGASVSVAVKADAGLPENVVHLPLHTENAALGALMDTIELAGA,not soluble
6,MDKGKGSKRSTPSLRAKKKTGTDRQKPSVKQNASQNSKKSSRQKKTPSVGKEREQATDKKREIEKKPQEKTALDEQQRKAQTETISNLEILPDKNPAKMDDGYEDFGPGAAAR,not soluble
7,MKIVIAPDSFKESLSADKCCQAIKAGFSTVFPDARYVCLPIADGGEGTVDAMVAATGGKRVSVDVSGPMGEKVNGFYGLTGDGKTAIIEMAAASGLMLVAPEARNPLLASSFGTGELIRHALDAGIRHIILGIGGSATVDGGMGVAQALGVRFLDAQGTPLGAGGGNLSRLASIDLQGCDPRISECRIEVACDVDNPLVGPRGAAAVFGPQKGATPEMVETLENGLRNYARVLHALTGRDMSQIPGGGAAGGMGIAAIVFLEAEMKPGIEIVMQAVKLEEAVKEASLVITGEGRIDSQTAGGKAPIGVASVAKRHHVPVIGIAGVLGDGVEVVHRHGIDAVFSILPRLAPLPEVLANGEQNLYHSACNIARVIKLGQDIGTR,not soluble
8,MSKNTGSVAPKERVNIKYVPATSDEQAEVELPHKMLVLGDFGLDDSRALEDRQVMRIDKHTFNSVLNDANVSLDVTVPSRLGTAPDTELAVHLQFRSINDFGPDRIARQVPELNKLLALREALVALKGPLGNVPAFRKQLQHLLNNEQARKQLAQELDLVLEAPEKD,not soluble
9,MGSDKIHHHHHHVYTIARLHNFGCAFLYSPLTYPLYRSWLRTLTIKGNIIAIGASVADKPVGLALAEILRDGSAKLLSIFVDPNSRCLGIGTALVHSLEEELILRNCTSIEIVYIAGKSTSLALECLLKKCNWPSAKPRMLICKTTTNDMTNAPWMKLSRMPAAYEIFPWMEITFQERVALKKQQEEKRWMASDAIPFDYEQDLEPINSIGLRYKGEVVGWLITHRTAPDTIRYTCSYVRPDIQKMGRIIPLYIRATQLQMEAGISRGTWTVSLMHTSMIAFVKKHMGPYLISLEQSMESSKLLSHL,not soluble
10,MSSQPRFIHLRTHTDFSMIDSIVKVKPLVKACAANEMVAMGLTDFTNFCGVVSFYSEMLSSGMKPIIGADVKVKSPLCGDEYFDLTLLAKNNEGYRNITLLLSKAYQRGYNDLPYIDQDWLIEHRDGVIILSGGTQGDVGKKLLKENVAEIESAVAFYQEFFADHFYLALSRTGRPNEERYIQAALKLAERCDLPLVATNDVMFLNTEDFEAHEIRVAIHDGYTLDDPKRPKCYTSQQYFRSEEDMCKLFADIPSALENTLLIAQRCSVTLRLGQYFLPQFPTGDLSTEDFLVQKSKEGLEERLVFLFPDEKVRLEKRPKYDERLQVELDVINQMGFPGYFLIVMEFIQWSKDNDIPVGPGRGSGAGSLVAYALKITDLDPLEFDLLFERFLNPERVSMPDFDVDFCMDGRDRVIEHVAETYGRGAVSQIITFGTMAAKAVIRDVGRVLGHPYGFVDRISKLIPPDPGMTLAKAFETEPQLQTAYDSDEEVRALINMARKLEGVTRNAGKHAGGVVISPTLITDFAPLYCDNEGLHPVTHFDKNDVEYAGLVKFDFLGLRTLTIIKWALDIINVRMVREGKPRVDIAAIPLDDPESFELLKRSETTAVFQLESRGMKDLIKRLQPDCFEDIIALVALFRPGPLQSGMVDNFIDRKHGREEVSYPDAEYQHASLKPILEPTYGIILYQEQVMQIAQVLAGYTLGGADLLRRAMGKKKPEEMAKQRLVFKEGAEKNGIDGELSMKIFDLVEKFAGYGFNKSHSAAYALVSYQTLWLKTHFPAEFMAAVMTSEMDNTDKIVGLYDECLRMGLKVTPPDINIGKHHFSVNEQGEIVYGIGAIKGVGEGPIEALVAARNEGGIFKDLFDLCARVDLKKINRRTFESLIMSGAFDKLGPHRAALSKNLEDALRASDQHAKDEAMGQTDMFGVLTETHEDVENAYANTPPYTEKQILDGERETLGLYLSSHPVSRYLKELSHYTSTRLKDLAPNRRGQISTVAGLVVASRIAMTKKGNRLGIATLDDRSGRLDLTLFGESLEQFGEKLQKDTVIVASGQVSFDDFSGGLKMTVRELMTLDEARSRYVKSLAISLSEHQITPSFIKQFKALLEPVSGGTLPINVYYQSPKGRALLRLGVQWSIIPTDEILTELVNLLGESAVELEFE,not soluble
11,MGSDKIHHHHHHVRVNVKSHGPRATFPAAPCLHRNPKVKLRLFPQEPAGLHLLSQMARQIVLATATLAEILGVPATEHNRLVEDMHDHEAKSAELHFALLTHMRTSFVNPLPREDMYALSRYLNEAMEKLDAAAELVALYKLERLPRRAADQLEIISRQAELTVDAMRQLNNLDDLEDYWIEILRLAKRAERTHRVWVADMIKDMKWAQYARNRDIANQLVEVTKDMRRIATQVGSIIVKES,not soluble
12,MIEIHKKFLEKDELFQFLKVAKYHHSPQNSFEVFTTLAYTGMRAGELLALKWSDIDFENNTISITKTYYNPNNNKKHYQILTRKTESSIGKITVDPHVIQLLKDYKVNVQDTWKNELYVDNNFVFTDVNGYPLVIKKLQLWIKAILKKTDITNKQISTHSFRYTHYALLIEAGVHIKEIQERLRHKDINTTMNIYAKITNSYKKDASQKFSKLEHHHHHH,not soluble
